Source: IntAct's records for PubMed 24183572

B1: Gamma-crystallin S (Homo sapiens), P22914 (parent)
chain: MSKTGTKITFYEDKNFQGRRYDCDCDCADFHTYLSRCNSIKVEGGTWAVYERPNFAGYMYILPQGEYPEYQRWMGLNDRLSSCRAVHLPSGGQYKIQIFEKGDFSGQMYETTEDCPSIMEQFHMREIHSCKVLEGVWIFYELPNYRGRQYLLDKKEYRKPIDWGAASPAVQSFRRIVE
partner: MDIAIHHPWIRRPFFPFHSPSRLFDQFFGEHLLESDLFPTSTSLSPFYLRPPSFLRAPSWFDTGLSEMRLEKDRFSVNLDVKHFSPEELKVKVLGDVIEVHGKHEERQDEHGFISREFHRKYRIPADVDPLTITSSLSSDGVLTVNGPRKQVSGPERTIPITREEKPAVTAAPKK

Variants of: B1
Settings: with cryab_human CRYAB

Row | Variant | effect of a mutation on the interaction
1 | MSKTGTKITFYEDKNFQVRRYDCDCDCADFHTYLSRCNSIKVEGGTWAVYERPNFAGYMYILPQGEYPEYQRWMGLNDRLSSCRAVHLPSGGQYKIQIFEKGDFSGQMYETTEDCPSIMEQFHMREIHSCKVLEGVWIFYELPNYRGRQYLLDKKEYRKPIDWGAASPAVQSFRRIVE [G18V] | increasing interaction strength
